Measured values from patent publication US20260000742.

Molecular target: mature TGF-β1, P04202
Sequence (P04202 279-390): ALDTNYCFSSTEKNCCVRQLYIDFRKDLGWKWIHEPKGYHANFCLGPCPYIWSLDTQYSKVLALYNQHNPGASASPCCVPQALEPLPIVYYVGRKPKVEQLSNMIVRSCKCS

B1: Htra3 tagged with FLAG at the C-terminus (Htra3-flag protein) (protein)
chain: REPPAAPCPARCDVSRCPSPRCPGGYVPDLCNCCLVCAASEGEPCGRPLDSPCGDSLECVRGVCRCRWTHTVCGTDGHTYADVCALQAASRRALQVSGTPVRQLQKGACPSGLHQLTSPRYKFNFIADVVEKIAPAVVHIELFLRHPLFGRNVPLSSGSGFIMSEAGLIVTNAHVVSSSSTASGRQQLKVQLQNGDAYEATIQDIDKKSDIATIVIHPKKKLPVLLLGHSADLRPGEFVVAIGSPFALQNTVTTGIVSTAQRDGKELGLRDSDMDYIQTDAIINYGNSGGPLVNLDGEVIGINTLKVAAGISFAIPSDRITRFLSEFQNKHVKDWKKRFIGIRMRTITPSLVEELKAANPDFPAVSSGIYVQEVVPNSPSQRGGIQDGDIIVKVNGRPLADSSELQEAVLNESSLLLEVRRGNDDLLFSIIPEVVM
protein levels of TGF-β1 and phosphorylated Smad2/3 in primary cardiac fibroblasts (western blot): overexpression of Htra3 reduced the protein levels of both TGF-β1 and phosphorylated Smad2/3 (phospho-Smad2/3), a marker of activated TGF-β signaling
